Assay results as given in publication PMC13355314 (2026).

B1: BD1 domain of BRD2 (domain or fragment)
chain: not shown
B2: BD1 domain of BRD3 (domain or fragment)
chain: not shown
B3: YPEL5 (protein)
chain: MGRIFLDHIGGTRLFSCANCDTILTNRSELISTRFTGATGRAFLFNKVVNLQYSEVQDRVMLTGRHMVRDVSCKNCNSKLGWIYEFATEDSQRYKEGRVILERALVRESEGFEEHVPSDNS

How the values were obtained:
[1] = target: biotinylated YPEL5–WDR26^ΔCTLH complex (AviTag on WDR26^ΔCTLH) (UniProt Q9H7D7 1-661; P62699 1-121, biotin on the C-terminal AviTag (BirA)); assay: BLI
BRD4 BD1 BD1 = BRD4 BD1 BD1 (Homo sapiens, UniProt O60885, ZZ1-SO2H)

| Binder | Kd [1] [nM] | Kd (BRD4 BD1 BD1) [nM] |
| --- | --- | --- |
| B1 | 16.4 |  |
| B2 | 23.2 |  |
| B3 |  | ~12 |
